Data: the supplement of paper PMC11316812
± gives the standard deviation of the averaged measurements.

Columns and labels:
[1] = test system: MCF7; test: percentage of EdU-negative (G0-arrested) nuclei per well, 72 h; higher = more G0 arrest; settings: reference: sequence is the full UniProt precursor, the tested protein was the secreted form or ectodomain
[2] = test system: hTERT-HMEC; test: as above; settings: reference: sequence is the full UniProt precursor, the tested protein was the secreted form or ectodomain
[3] = protein concentration 0.027515 µM
[4] = protein concentration 0.27515 µM
[5] = protein concentration 0.0225 µM
[6] = protein concentration 0.0161125 µM
[7] = protein concentration 0.161125 µM
[8] = protein concentration 0.0215 µM
[9] = protein concentration 0.03034 µM
[10] = protein concentration 0.3034 µM
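Also: secreted proteins added to cultured cells, EdU pulse at the end, nuclei found by Hoechst imaging, EdU status from nuclear versus surrounding ring intensity ratio, PBS as neutral control.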

Sequence | percentage of EdU-negative [1, 5] | percentage of EdU-negative ([1]; protein concentration 0.225 µM) | percentage of EdU-negative [2, 5] | percentage of EdU-negative ([2]; protein concentration 0.225 µM) | further results
MQALVLLLCIGALLGHSSCQNPASPPEEGSPDPDSTGALVEEEDPFFKVPVNKLAAAVSNFGYDLYRVRSSTSPTTNVLLSPLSVATALSALSLGAEQRTESIIHRALYYDLISSPDIHGTYKELLDTVTAPQKNLKSASRIVFEKKLRIKSSFVAPLEKSYGTRPRVLTGNPRLDLQEINNWVQAQMKGKLARSTKEIPDEISILLLGVAHFKGQWVTKFDSRKTSLEDFYLDEERTVRVPMMSDPKAVLRYGLDSDLSCKIAQLPLTGSMSIIFFLPLKVTQNLTLIEESLTSEFIHDIDRELKTVQAVLTVPKLKLSYEGEVTKSLQEMKLQSLFDSPDFSKITGKPIKLTQVEHRAGFEWNEDGAGTTPSPGLQPAHLTFPLDYHLNQPFIFVLRDTDTGALLFIGKILDPRGP |  |  |  |  | percentage of EdU-negative [1, 3]: 26.5 ± 1.4%; percentage of EdU-negative [1, 4]: 28 ± 0.47%; percentage of EdU-negative [2, 3]: 5.35 ± 0.62%; percentage of EdU-negative [2, 4]: 9.19 ± 1.1%
MQAPGRGPLGLRLMMPGRRGALREPGGCGSCLGVALALLLLLLPACCPVRAQNDTEPIVLEGKCLVVCDSSPSADGAVTSSLGISVRSGSAKVAFSATRSTNHEPSEMSNRTMTIYFDQVLVNIGNHFDLASSIFVAPRKGIYSFSFHVVKVYNRQTIQVSLMQNGYPVISAFAGDQDVTREAASNGVLLLMEREDKVHLKLERGNLMGGWKYSTFSGFLVFPL [Q8IUK8] | 26.91 ± 0.25% | 26.76 ± 0.11% | 4.67 ± 0.45% | 5.29 ± 0.93% | 
MQAQQYQQQRRKFAAAFLAFIFILAAVDTAEAGKKEKPEKKVKKSDCGEWQWSVCVPTSGDCGLGTREGTRTGAECKQTMKTQRCKIPCNWKKQFGAECKYQFQAWGECDLNTALKTRTGSLKRALHNAECQKTVTISKPCGKLTKPKPQAESKKKKKEGKKQEKMLD |  |  |  |  | percentage of EdU-negative [1, 6]: 25.8 ± 1.2%; percentage of EdU-negative [1, 7]: 30.5 ± 1.6%; percentage of EdU-negative [2, 6]: 4.79 ± 0.99%; percentage of EdU-negative [2, 7]: 5.12 ± 0.3%
MQCLLLLPFLLLGTVSALHLENDAPHLESLETQADLGQDLDSSKEQERDLALTEEVIQAEGEEVKASACQDNFEDEEAMESDPAALDKDFQCPREEDIVEVQGSPRCKICRYLLVRTPKTFAEAQNVCSRCYGGNLVSIHDFNFNYRIQCCTSTVNQAQVWIGGNLRGWFLWKRFCWTDGSHWNFAYWSPGQPGNGQGSCVALCTKGGYWRRAQCDKQLPFVCSF [Q9Y2Y8] |  |  |  |  | percentage of EdU-negative [1, 8]: 28.7 ± 1.2%; percentage of EdU-negative ([1]; protein concentration 0.215 µM): 32.1 ± 2.4%; percentage of EdU-negative [2, 8]: 5.28 ± 1.6%; percentage of EdU-negative ([2]; protein concentration 0.215 µM): 8.49 ± 1.7%
MQCRLPRGLAGALLTLLCMGLLCLRYHLNLSPQRVQGTPELSQPNPGPPKLQLHDVFIAVKTTRAFHRLRLELLLDTWVSRTREQTFVFTDSPDKGLQERLGSHLVVTNCSAEHSHPALSCKMAAEFDTFLASGLRWFCHVDDDNYVNPRALLQLLRAFPLARDVYVGRPSLNRPIHASEPQPHNRTRLVQFWFATGGAGFCINRKLALKMAPWASGSRFMDTSALIRLPDDCTMGYIIECKLGGRLQPSPLFHSHLETLQLLRTAQLPEQVTLSYGVFEGKLNVIKLQGPFSPEEDPSRFRSLHCLLYPDTPWCPQLGAR | 25.3 ± 2.3% | 29.9 ± 2.4% | 5.18 ± 0.59% | 11.6 ± 0.88% | 
MQCWQQPFLRFLQQPFFLATASLAGSSSSFNVLIPKRDEDGDGEGPGDVTAGVSRAAGSPSGWEAPWVQQPRCCRRATPVCCAGQGPPRSLQQGGSEVLLGQLCSPEPDWLPSSGPKVAKQVFQVAAELLQHPEHFVPSSVPEGCVHKPGSTCDGSLKGRAYPSCVPKRDPEHSREESHPLSG [Q6UXR6] | 26.15 ± 0.12% | 26.1 ± 0.63% | 4.87 ± 0.51% | 4.95 ± 1% | 
MQGAQEASASEMLPLLLPLLWAGALAQERRFQLEGPESLTVQEGLCVLVPCRLPTTLPASYYGYGYWFLEGADVPVATNDPDEEVQEETRGRFHLLWDPRRKNCSLSIRDARRRDNAAYFFRLKSKWMKYGYTSSKLSVRVMALTHRPNISIPGTLESGHPSNLTCSVPWVCEQGTPPIFSWMSAAPTSLGPRTTQSSVLTITPRPQDHSTNLTCQVTFPGAGVTMERTIQLNVSYAPQKVAISIFQGNSAAFKILQNTSSLPVLEGQALRLLCDADGNPPAHLSWFQGFPALNATPISNTGVLELPQVGSAEEGDFTCRAQHPLGSLQISLSLFVHWKPEGRAGGVLGAVWGASITTLVFLCVCFIFRVKTRRKKAAQPVQNTDDVNPVMVSGSRGHQHQFQTGIVSDHPAEAGPISEDEQELHYAVLHFHKVQPQEPKVTDTEYSEIKIHK |  |  |  |  | percentage of EdU-negative [1, 9]: 22.4 ± 2.3%; percentage of EdU-negative [1, 10]: 27.1 ± 0.29%; percentage of EdU-negative [2, 9]: 5.1074 ± 0.0018%; percentage of EdU-negative [2, 10]: 5.306 ± 0.046%
MQGPWVLLLLGLRLQLSLGIIPVEEENPDFWNRQAAEALGAAKKLQPAQTAAKNLIIFLGDGMGVSTVTAARILKGQKKDKLGPETFLAMDRFPYVALSKTYSVDKHVPDSGATATAYLCGVKGNFQTIGLSAAARFNQCNTTRGNEVISVMNRAKKAGKSVGVVTTTRVQHASPAGAYAHTVNRNWYSDADVPASARQEGCQDIATQLISNMDIDVILGGGRKYMFPMGTPDPEYPDDYSQGGTRLDGKNLVQEWLAKHQGARYVWNRTELLQASLDPSVTHLMGLFEPGDMKYEIHRDSTLDPSLMEMTEAALLLLSRNPRGFFLFVEGGRIDHGHHESRAYRALTETIMFDDAIERAGQLTSEEDTLSLVTADHSHVFSFGGYPLRGSSIFGLAPGKARDRKAYTVLLYGNGPGYVLKDGARPDVTESESGSPEYRQQSAVPLDGETHAGEDVAVFARGPQAHLVHGVQEQTFIAHVMAFAACLEPYTACDLAPRAGTTDAAHPGPSVVPALLPLLAGTLLLLGTATAP | 23.9 ± 3.7% | 27.2 ± 0.72% | 4.62 ± 0.18% | 5.34 ± 0.29% | 
